Laboratory results reported in patent US5574016A, “Peptide compound and a process for the preparation thereof” (Fujisawa Pharmaceutical Co., Ltd., priority 1991, dated 1996).

Test system: thrombosis model in Guinea-pig (FeCl3 carotid artery thrombosis)
Test: Enhancement of thrombolytic activity of TPA in thrombosis model in Guinea-pig
Assay type: in vivo, Male Hartley guinea-pigs
Settings: Group 1 (5 animals): saline and r-TPA 0.30 mg/kg i.v. bolus +1.0 mg/kg/hour i.v. infusion; reperfusion = 50 % recovery of carotid blood flow velocity; recorded up to 90 minutes
Text: Male Hartley guinea-pigs (500-800 g) were anesthetized with urethane (1.25 g/kg i.p.). The carotid artery and cervical vein were carefully exposed after a midline cervical insision. The vein was cannulated with a polyethylene catheter (PE50; Becton Dikinson, U.S.A.) for the injection and infusion of the drug. A pulse Dopplar flow probe was placed around the carotid artery to record the blood flow velocity to moniter thrombus formation and thrombolysis. Carotid artery thrombosis was induced by the FeCl3 method as follows;
a square (1 mm×1 mm) of ADVANTEC No. 2 filter paper immersed in 20% FeCl3 was placed on the carotid artery which became occluded by a thrombus.
When the blood flow velocity decreased to zero, the filter paper was removed from the vessel and the carotid artery were washed with saline more than 4 times. The test compound or saline was injected 3 minutes after the washing and 3 minutes later r-TPA [Actilyse (trademark); Boehringer Ingelheim Ltd] was infused for 60 minutes.
The animals were divided into the following groups;
Group 1 (5 animals): Saline and r-TPA at 0.30 mg/kg i.v. bolus +1.0 mg/kg/hour i.v. infusion […]
The reperfusion was defined as 50 % recovery of carotid artery blood flow velocity compared with the initial value. The blood flow was recorded up to 90 minutes.

B1: r-TPA: r-TPA [Actilyse (trademark); Boehringer Ingelheim Ltd], tissue plasminogen activator, infused for 60 minutes (protein, UniProt P00750 36-562, looked up)
Tissue-type plasminogen …: SYQVICRDEKTQMIYQQHQSWLRPVLRSNRVEYCWCNSGRAQCHSVPVKSCSEPRCFNGGTCQQALYFSDFVCQCPEGFAGKCCEIDTRATCYEDQGISYRGTWSTAESGAECTNWNSSALAQKPYSGRRPDAIRLGLGNHNYCRNPDRDSKPWCYVFKAGKYSSEFCSTPACSEGNSDCYFGNGSAYRGTHSLTESGASCLPWNSMILIGKVYTAQNPSAQALGLGKHNYCRNPDGDAKPWCHVLKNRRLTWEYCDVPSCSTCGLRQYSQPQFRIKGGLFADIASHPWQAAIFAKHRRSPGERFLCGGILISSCWILSAAHCFQERFPPHHLTVILGRTYRVVPGEEEQKFEVEKYIVHKEFDDDTYDNDIALLQLKSDSSRCAQESSVVRTVCLPPADLQLPDWTECELSGYGKHEALSPFYSERLKEAHVRLYPSSRCTSQHLLNRTVTDNMLCAGDTRSGGPQANLHDACQGDSGGPLVCLNDGRMTLVGIISWGLGCGQKDVPGVYTKVTNYLDWIRDNMRP
B1 was tested, and the “number of animals in which reperfusion was observed” value was 1.
